Numbering of substitutions follows the chain as printed. Several values for one entry are separate records, joined by “and”; a condition that tells them apart may be missing. Equal entries are not always repeated.
Tests used:
human CCR7 [1] = biological target: T1, human CCR7 (human, UniProt P32248 25-378, sulfated tyrosine residues in position Y32 and Y41 (as the filing describes the N-terminal extracellular domain)); assay: cell-based or functional assay
T1 sequence: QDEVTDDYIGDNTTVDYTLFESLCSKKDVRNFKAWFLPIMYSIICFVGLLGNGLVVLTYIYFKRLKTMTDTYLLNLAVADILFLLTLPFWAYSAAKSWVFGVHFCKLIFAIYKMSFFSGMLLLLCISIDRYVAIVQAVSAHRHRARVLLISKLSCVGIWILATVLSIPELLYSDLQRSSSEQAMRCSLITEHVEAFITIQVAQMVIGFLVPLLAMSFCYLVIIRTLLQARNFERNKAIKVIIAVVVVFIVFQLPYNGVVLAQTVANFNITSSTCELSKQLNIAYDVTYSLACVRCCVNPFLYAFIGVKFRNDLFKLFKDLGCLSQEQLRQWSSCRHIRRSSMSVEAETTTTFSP

sulfated antigen SYM1899 = biological target: T2, sulfated antigen SYM1899 (human, N-terminal pyroGlu; Z denotes sulfated Tyrosine (two Z in (pyroGlu)DEVTDDZIGDNTTVDZTLFESLCSKKDVRNK)); assay: ELISA, SYM1899 coated on the plate, 4 parameter logistics curve fit
T2 construct: also called immunogen SYM1899; synthetic antigen SYM1899
T2 peptide: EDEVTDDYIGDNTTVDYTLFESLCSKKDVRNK
Description: SEQ ID NO: 76). 100 ng/well SYM1899 was immobilized onto 96 well Maxisorp plates in coating buffer. Coating buffer was removed and 200 μl/well of block solution (3% w/v semi skim milk powder, PBS) was added and agitated 2 hours room temperature. Plate was washed six times with PBS-T (0.001% v/v Tween 20). […] 100 μl per well in triplicate of each antibody dilution was added to the plate in addition to a negative control of PBS and incubated 2 hours at room temperature with agitation. Plate was washed six times with PBS-T. 100 μl/well goat anti human HRP (Fc specific) (1:60,000 in PBS) was added and plates incubated for one hour agitated at room temperature. Plate was washed six times with PBS-T and once in PBS. 100 μl/well of TMB substrate solution was added and incubated at 37° C. for 10 minutes. 50 μl 1M HCl was added per well and the plate immediately read at 450 nm on a Biolise plate reader.

human CCR7 [2] = biological target: T1, human CCR7; assay: FACS (flow cytometry) on CLL and TPLL cells
Description: Binding of antibodies to membrane expressed CCR7 was determined by Fluorescence-activated cell sorting (FACS) by flow cytometry on three different chronic lymphocytic leukemia (CLL) samples and on three different T-cell Prolymphocytic leukaemia (TPLL) samples (data not shown). Appropriate controls (human isotype controls) were included to easily calculate the percentage of positive cells and/or the relative median fluorescence intensity (RMFI), obtained from the ratio MFI (sample)/MFI (control).

B1: humanized anti-CCR7 mAb 650 variant HC1 LC1 (antibody, V domains shown)
VH: EVQLLESGGGFVKPGGSLKLSCVVSGLTFRDFAMSWVRQTPEKRLVWVATISSGGFYTYYPDSVKGRFTISRDNVRNILYLQMSSLRSEDTAVYYCVRRAYRYDGTGDYSALDYWGTGTTVTVSS
VL: DIQMTQSPSSLSASVGDRVTITCRASQDIGPSLNWYQQKPGKAPKRLIYATSNLDSGVPSRFSGSGSGTDFTLTISSLQPEDFATYYCLQFASSPLTFGQGTKVEIK
With B1 the “IC50 of inhibition of CCL19 induced CCR7 receptor internalization (PathHunter active internalization assay)” value (human CCR7 [1]) was 0.415 µg/ml and 2.8 nM, the “IC50 of inhibition of CCL19 induced cAMP signalling (cAMP Secondary Messenger Pathway assay)” value (human CCR7 [1]) was 1.61 µg/ml and 10.7 nM and the “IC50 of inhibition of CCL19 induced β-arrestin recruitment (PathHunter)” value (human CCR7 [1]) was 9.56 µg/ml and 63.7 nM.

B2: humanized anti-CCR7 mAb 650 variant HC3 LC3 (antibody, V domains shown)
VH: EVQLVESGGGLVQPGGSLRLSCAVSGLTFRDFAMSWVRQAPGKGLEWVSTISSGGFYTYYPDSVKGRFTISRDNSKNTLYLQMNSLRAEDTASYYCVRRAYRYDGTGDYSALDYWGQGTLVTVSS
VL: B1 VL with Y36L, R46S, R61K, T72S, K103R, V104L
notes: Human Fc; See the note on VK3 under HC1 LC3
For B2, the EC50 (sulfated antigen SYM1899) was > 100 nM.

B3: control antibody 11-x (antibody, human IgG1, V domains shown)
VH: EVQLLESGGGFVKPGGSLKLSCVVSGLTFRDFAMSWVRQTPEKRLVWVATISSGGFYTYYPDSVKGRFTISRDNVRNILYLQMSSLRSEDTAVYYCARATTVVGTDFDYWGTGTTVTVSS
VL: B1 VL
B3: no binding (human CCR7 [2]).

B4: humanized anti-CCR7 mAb 650 variant HC1 LC3 (antibody, V domains shown)
VH: B1 VH
VL: B1 VL with Y36L, R46S, R61K, T72S, K103R, V104L
notes: Human Fc
With B4 the EC50 (sulfated antigen SYM1899) was > 100 nM.

B5: humanized anti-CCR7 mAb 650 variant HC2 LC3 (antibody, V domains shown)
VH: B2 VH with Q13K, V24A, S25P, S75A, K76A, T78S, S93V
VL: B1 VL with Y36L, R46S, R61K, T72S, K103R, V104L
notes: as for B2
For B5, the EC50 (sulfated antigen SYM1899) was > 100 nM.

From US20250092147A1 (PEPMAB B V, published 2025)
